This note sets out measurements from publication PMC3295402 (Journal of Experimental Botany, 2012).

Positions count from the first letter of the chain named.

In assay [1] the target is cryptogein (wt cryptogein, Cry) (Phytophthora cryptogea, UniProt P15570, L61F). Nature of the assay: biochemical.
The target of assay [2] is cryptogein (wt cryptogein, Cry) (Phytophthora cryptogea, UniProt P15570). Nature of the assay: biochemical.
The target in assay [3] is high-affinity binding site on the tobacco plasma membrane (tobacco (endogenous in Xanthi cell suspension)). Briefly: filter binding of FITC-labelled ligand to plasma membrane preparations.

As usually defined, the Kd is the free concentration of one partner at which half of the binding sites on the other are occupied at equilibrium, for simple one-to-one binding. Read a low Kd as tighter binding. For `CC(C)[C@@H](C)/C=C/[C@@H](C)[C@H]1CC[C@H]2C3=CC=C4C[C@@H](O)CC[C@]4(C)C3=CC[C@]12C` [DHE], the Kd in assay [1] was 850 ± 50 nM; in assay [2], 560 ± 40 nM.

B1: wild type (wt) cryptogein (ligand)
chain: GTACTATQQTAAYKTLVSILSDASFNQCSTDSGYSMLTAKALPTTAQYKLMCASTACNTMIKKIVTLNPPNCDLTVPTSGLVLNVYSYANGFSNKCSSL
modifications: fluorescein isothiocyanate (FITC) label, site not stated
On to B1, for which the amount of bound molecules at 10 nM (pmol mg^−1 plasma membrane proteins) in assay [3] is 57.4.

B2: cryptogein Val84Phe mutant (ligand)
chain: B1 chain with V65F
modifications: fluorescein isothiocyanate (FITC) label, site not stated
As for B2, the amount of bound molecules at 10 nM (pmol mg^−1 plasma membrane proteins) in assay [3] came to 55.3.

B3: cryptogein Leu41Phe mutant (ligand)
chain: B1 chain with L42F
modifications: fluorescein isothiocyanate (FITC) label, site not stated
In assay [3], B3 returned an amount of bound molecules at 30 nM (pmol mg^−1 plasma membrane proteins) of 14.4.

B4: cryptogein Leu41Phe/Val84Phe double mutant (ligand)
chain: B1 chain with L42F, V85F
modifications: fluorescein isothiocyanate (FITC) label, site not stated
The molecule B4 gave an amount of bound molecules at 30 nM (pmol mg^−1 plasma membrane proteins) in assay [3] of 16.9.
